Results reported in paper PMC2824112, “A comparative analysis of the fluorescence properties of the wild-type and active site mutants of the hepatitis C virus autoprotease NS2-3” (Biochimica et Biophysica Acta, 2010).

Molecular target: the molecule itself
Test: cross-linking; glutaraldehyde (final 0.001-0.002% v/v in refolding buffer) on refolded NS2-3 precursor (0.2 uM), 50 ul, 25 °C, 5 min; SDS-PAGE and western blot with anti-FLAG; monomer to dimer

B1: JFH-1 NS2-3 wild-type precursor (HCV genotype 2a NS2-3 autoprotease, residues 907-1210) (domain or fragment)
chain: RAALTHVPYFVRAHALIRVCALVKQLAGGRYVQVALLALGRWTGTYIYDHLTPMSDWAASGLRDLAVAVEPIIFSPMEKKVIVWGAETAACGDILHGLPVSARLGQEILLGPADGYTSKGWKLLAPITAYAQQTRGLLGAIVVSMTGRDRTEQAGEVQILSTVSQSFLGTTISGVLWTVYHGAGNKTLAGLRGPVTQMYSSAEGDLVGWPSPPGTKSLEPCKCGAVDLYLVTRNADVIPARRRGDKRGALLSPRPISTLKGSSGGPVLCPRGHVVGLFRAAVCSRGVAKSIDFIPVETLDVVTR
notes: The wild type auto-cleaves at 25 °C with about 30% efficiency overnight; also called WT NS2-3; NS2-3 precursor; not shown: FLAG, C-terminal, kept
- stoichiometry N: 2
